Source: article doi:10.1101/2024.11.16.623948, “Biochemical principles of miRNA targeting in flies”

How the values were obtained:
[1] = target: T1, FLAG-Ago1 (Drosophila melanogaster, UniProt A1Z9J5 1-950); experiment: RBNS; bantam guide; RBNS: 20 mM HEPES-KOH pH 7.9, 100 mM KOAc, 3.5 mM Mg(OAc) (magnesium acetate), 0.05% CHAPS, 2 mM DTT, 8% glycerol, BSA, tRNA, 25 C 2 h; filter binding: 25 mM HEPES-KOH pH 7.9, 110 mM KOAc, 3.5 mM magnesium acetate, 2 mM DTT, BSA, tRNA, 8% glycerol, 25 C 2 h; competition: 18 mM HEPES-KOH pH 7.4, 100 mM KOAc, 3 mM magnesium acetate, 5 mM DTT, 0.01% IGEPAL, tRNA, 25 C 1 h; details: protein: recombinant, tags: FLAG
T1 sequence (A1Z9J5 entry or part of it): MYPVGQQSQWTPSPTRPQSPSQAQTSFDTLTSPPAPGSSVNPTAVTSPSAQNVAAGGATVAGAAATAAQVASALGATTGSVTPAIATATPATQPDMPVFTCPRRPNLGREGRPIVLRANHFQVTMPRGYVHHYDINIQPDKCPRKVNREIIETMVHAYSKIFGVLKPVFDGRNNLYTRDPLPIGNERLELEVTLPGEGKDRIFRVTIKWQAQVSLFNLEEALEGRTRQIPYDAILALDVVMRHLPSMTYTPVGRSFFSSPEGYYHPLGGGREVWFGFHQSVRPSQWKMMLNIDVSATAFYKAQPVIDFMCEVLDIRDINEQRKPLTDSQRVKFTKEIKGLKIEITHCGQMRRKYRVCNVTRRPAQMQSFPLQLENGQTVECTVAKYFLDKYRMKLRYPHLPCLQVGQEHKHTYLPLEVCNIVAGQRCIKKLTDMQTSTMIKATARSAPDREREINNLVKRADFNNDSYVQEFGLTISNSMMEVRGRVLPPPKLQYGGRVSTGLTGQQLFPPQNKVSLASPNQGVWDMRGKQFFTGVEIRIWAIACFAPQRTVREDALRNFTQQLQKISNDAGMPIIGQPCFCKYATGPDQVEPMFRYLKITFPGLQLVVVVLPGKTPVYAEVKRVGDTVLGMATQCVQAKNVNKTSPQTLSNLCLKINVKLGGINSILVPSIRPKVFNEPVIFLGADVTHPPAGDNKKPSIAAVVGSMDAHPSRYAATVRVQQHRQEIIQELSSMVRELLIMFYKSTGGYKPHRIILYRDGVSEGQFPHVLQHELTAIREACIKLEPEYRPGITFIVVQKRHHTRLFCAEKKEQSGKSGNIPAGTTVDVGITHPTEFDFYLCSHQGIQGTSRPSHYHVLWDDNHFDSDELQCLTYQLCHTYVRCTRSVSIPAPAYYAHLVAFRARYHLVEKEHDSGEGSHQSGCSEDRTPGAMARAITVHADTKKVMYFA

[2] = target: T1, FLAG-Ago1; experiment: RBNS; let-7 guide; RBNS: 20 mM HEPES-KOH pH 7.9, 100 mM KOAc, 3.5 mM Mg(OAc) (magnesium acetate), 0.05% CHAPS, 2 mM DTT, 8% glycerol, BSA, tRNA, 25 C 2 h; filter binding: 25 mM HEPES-KOH pH 7.9, 110 mM KOAc, 3.5 mM magnesium acetate, 2 mM DTT, BSA, tRNA, 8% glycerol, 25 C 2 h; competition: 18 mM HEPES-KOH pH 7.4, 100 mM KOAc, 3 mM magnesium acetate, 5 mM DTT, 0.01% IGEPAL, tRNA, 25 C 1 h; details: protein: recombinant, tags: FLAG
[3] = target: T1, FLAG-Ago1; experiment: RBNS; miR-184 guide; RBNS: 20 mM HEPES-KOH pH 7.9, 100 mM KOAc, 3.5 mM Mg(OAc) (magnesium acetate), 0.05% CHAPS, 2 mM DTT, 8% glycerol, BSA, tRNA, 25 C 2 h; filter binding: 25 mM HEPES-KOH pH 7.9, 110 mM KOAc, 3.5 mM magnesium acetate, 2 mM DTT, BSA, tRNA, 8% glycerol, 25 C 2 h; competition: 18 mM HEPES-KOH pH 7.4, 100 mM KOAc, 3 mM magnesium acetate, 5 mM DTT, 0.01% IGEPAL, tRNA, 25 C 1 h; details: protein: recombinant, tags: FLAG
[4] = target: T1, FLAG-Ago1; experiment: RBNS; miR-11 guide; G:U site analysis; RBNS: 20 mM HEPES-KOH pH 7.9, 100 mM KOAc, 3.5 mM Mg(OAc) (magnesium acetate), 0.05% CHAPS, 2 mM DTT, 8% glycerol, BSA, tRNA, 25 C 2 h; filter binding: 25 mM HEPES-KOH pH 7.9, 110 mM KOAc, 3.5 mM magnesium acetate, 2 mM DTT, BSA, tRNA, 8% glycerol, 25 C 2 h; competition: 18 mM HEPES-KOH pH 7.4, 100 mM KOAc, 3 mM magnesium acetate, 5 mM DTT, 0.01% IGEPAL, tRNA, 25 C 1 h; details: protein: recombinant; tags: FLAG; g2-g7 + t1A
[5] = target: T1, FLAG-Ago1; experiment: RBNS; miR-11 guide; bulge site analysis; RBNS: 20 mM HEPES-KOH pH 7.9, 100 mM KOAc, 3.5 mM Mg(OAc) (magnesium acetate), 0.05% CHAPS, 2 mM DTT, 8% glycerol, BSA, tRNA, 25 C 2 h; filter binding: 25 mM HEPES-KOH pH 7.9, 110 mM KOAc, 3.5 mM magnesium acetate, 2 mM DTT, BSA, tRNA, 8% glycerol, 25 C 2 h; competition: 18 mM HEPES-KOH pH 7.4, 100 mM KOAc, 3 mM magnesium acetate, 5 mM DTT, 0.01% IGEPAL, tRNA, 25 C 1 h; details: protein: recombinant; tags: FLAG; g2-g7 + t1A
[6] = target: T1, FLAG-Ago1; experiment: RBNS; miR-11 guide; RBNS: 20 mM HEPES-KOH pH 7.9, 100 mM KOAc, 3.5 mM Mg(OAc) (magnesium acetate), 0.05% CHAPS, 2 mM DTT, 8% glycerol, BSA, tRNA, 25 C 2 h; filter binding: 25 mM HEPES-KOH pH 7.9, 110 mM KOAc, 3.5 mM magnesium acetate, 2 mM DTT, BSA, tRNA, 8% glycerol, 25 C 2 h; competition: 18 mM HEPES-KOH pH 7.4, 100 mM KOAc, 3 mM magnesium acetate, 5 mM DTT, 0.01% IGEPAL, tRNA, 25 C 1 h; details: protein: recombinant, tags: FLAG
[7] = target: T2, Ago1 (RISC assembled in embryo lysate) (Drosophila melanogaster, UniProt A1Z9J5 1-950); experiment: competition; let-7 guide; nearly same affinity as fully complementary; RBNS: 20 mM HEPES-KOH pH 7.9, 100 mM KOAc, 3.5 mM Mg(OAc) (magnesium acetate), 0.05% CHAPS, 2 mM DTT, 8% glycerol, BSA, tRNA, 25 C 2 h; filter binding: 25 mM HEPES-KOH pH 7.9, 110 mM KOAc, 3.5 mM magnesium acetate, 2 mM DTT, BSA, tRNA, 8% glycerol, 25 C 2 h; competition: 18 mM HEPES-KOH pH 7.4, 100 mM KOAc, 3 mM magnesium acetate, 5 mM DTT, 0.01% …; details: protein: native; g2-g21, G:U at g4
T2 sequence (A1Z9J5 entry or part of it): as above

[8] = target: T2, Ago1 (RISC assembled in embryo lysate); experiment: competition; let-7 guide (text: 110-fold); RBNS: 20 mM HEPES-KOH pH 7.9, 100 mM KOAc, 3.5 mM Mg(OAc) (magnesium acetate), 0.05% CHAPS, 2 mM DTT, 8% glycerol, BSA, tRNA, 25 C 2 h; filter binding: 25 mM HEPES-KOH pH 7.9, 110 mM KOAc, 3.5 mM magnesium acetate, 2 mM DTT, BSA, tRNA, 8% glycerol, 25 C 2 h; competition: 18 mM HEPES-KOH pH 7.4, 100 mM KOAc, 3 mM magnesium acetate, 5 mM DTT, 0.01% IGEPAL, tRNA, 25 C 1 h; details: protein: native; g2-g21, G:U at g4 and g5

B1: bantam / 6mer-m8 (dsRNA)
RNA 1: UGAGAUCAUUUUGAAAGCUGAUU
RNA 2: UGAUCU
modifications: guide 5' phosphate
Kd ([1]; g3-g8): 1.01 nM

B2: let-7 / 8mer (dsRNA)
RNA 1: UGAGGUAGUAGGUUGUAUAGU
RNA 2: CUACCUCA
modifications: guide 5' phosphate
Kd ([2]; guide g2-g8 + t1A, site in 20-nt random RBNS library): 0.00173 nM

B3: miR-184 / 6mer-m8 (dsRNA)
RNA 1: UGGACGGAGAACUGAUAAGGGC
RNA 2: UCCGUC
modifications: guide 5' phosphate
Kd ([3]; g3-g8): 0.321 nM

B4: let-7 / 7mer-m8,w2 (dsRNA)
RNA 1: UGAGGUAGUAGGUUGUAUAGU
RNA 2: CUACCUU
modifications: guide 5' phosphate
Kd ([2]; G:U at g2): 0.278 nM

B5: miR-11 / 7mer-A1 (dsRNA)
RNA 1: CAUCACAGUCUGAGUUCUUGC
RNA 2: UGUGAUA
modifications: guide 5' phosphate
Kd [4]: 0.0812 nM
Kd [5]: 0.07 nM

B6: bantam / 8mer (dsRNA)
RNA 1: UGAGAUCAUUUUGAAAGCUGAUU
RNA 2: UGAUCUCA
modifications: guide 5' phosphate
Kd ([1]; g2-g8 + t1A): 0.0189 nM

B7: let-7 / 8mer-b5.6A (dsRNA)
RNA 1: UGAGGUAGUAGGUUGUAUAGU
RNA 2: CUAACCUCA
modifications: guide 5' phosphate
Kd ([2]; nucleation bulge A between t5 and t6): 0.12 nM

B8: let-7 / 6mer-A1 (dsRNA)
RNA 1: UGAGGUAGUAGGUUGUAUAGU
RNA 2: ACCUCA
modifications: guide 5' phosphate
Kd ([2]; g2-g6 + t1A): 0.092 nM

B9: miR-184 / 7mer-A1 (dsRNA)
RNA 1: UGGACGGAGAACUGAUAAGGGC
RNA 2: CCGUCCA
modifications: guide 5' phosphate
Kd ([3]; g2-g7 + t1A): 0.037 nM

B10: miR-11 / 8mer-w8 (dsRNA)
RNA 1: CAUCACAGUCUGAGUUCUUGC
RNA 2: UUGUGAUA
modifications: guide 5' phosphate
Kd ([6]; G:U at g8): 0.0612 nM

B11: let-7 / competitor G:U at g4 (dsRNA)
RNA 1: UGAGGUAGUAGGUUGUAUAGU
RNA 2: GAUACUAUACAACCUACUACUUCAACCU
modifications: 2'-O-methyl and phosphorothioate at t10-t11
binding result [7]: binds

B12: let-7 / 6mer-m8 (dsRNA)
RNA 1: UGAGGUAGUAGGUUGUAUAGU
RNA 2: CUACCU
modifications: guide 5' phosphate
Kd ([2]; g3-g8): 0.328 nM

B13: let-7 / 8mer-w8 (dsRNA)
RNA 1: UGAGGUAGUAGGUUGUAUAGU
RNA 2: UUACCUCA
modifications: guide 5' phosphate
Kd ([2]; G:U at g8): 0.0154 nM

B14: miR-184 / 7mer-m8,w2 (dsRNA)
RNA 1: UGGACGGAGAACUGAUAAGGGC
RNA 2: UCCGUCU
modifications: guide 5' phosphate
Kd ([3]; G:U at g2): 0.154 nM

B15: miR-184 / 8mer-b5.6C (printed b5.6CA) (dsRNA)
RNA 1: UGGACGGAGAACUGAUAAGGGC
RNA 2: UCCCGUCCA
modifications: guide 5' phosphate
Kd ([3]; nucleation bulge C between t5 and t6): 0.038 nM

B16: let-7 / 7mer-A1 (dsRNA)
RNA 1: UGAGGUAGUAGGUUGUAUAGU
RNA 2: UACCUCA
modifications: guide 5' phosphate
Kd ([2]; g2-g7 + t1A): 0.0221 nM

B17: let-7 / competitor G:U at g4-g5 (dsRNA)
RNA 1: UGAGGUAGUAGGUUGUAUAGU
RNA 2: GAUACUAUACAACCUACUAUUUCAACCU
modifications: 2'-O-methyl and phosphorothioate at t10-t11
binding signal [8]: 120 ± 20 fold Kd vs fully complementary

B18: bantam / 7mer-m8,w2 (dsRNA)
RNA 1: UGAGAUCAUUUUGAAAGCUGAUU
RNA 2: UGAUCUU
modifications: guide 5' phosphate
Kd ([1]; G:U at g2): 0.866 nM

B19: miR-11 / 8mer-b5.6G (dsRNA)
RNA 1: CAUCACAGUCUGAGUUCUUGC
RNA 2: CUGGUGAUA
modifications: guide 5' phosphate
Kd ([6]; nucleation bulge G between t5 and t6): 0.107 nM

B20: miR-184 / 8mer-x4C (dsRNA)
RNA 1: UGGACGGAGAACUGAUAAGGGC
RNA 2: UCCGCCCA
modifications: guide 5' phosphate
Kd ([3]; mismatch at t4): ~0.13 nM
